Test results published in patent US12559749B2, “Methods of rescuing stop codons via genetic reassignment with ACE-tRNA” (UNIVERSITY OF IOWA RESEARCH FOUNDATION, priority 2017, dated 2026).

System: CFTR W1282X
Assay: CFTR W1282X rescue, western blot of B and C bands, HEK cells
Assay type: cell-based, human
Settings: co-expression with CFTR W1282X cDNA in HEK cells
Procedure: To assess is these novel tRNA could rescue CFTR channels harboring nonsense codons, they were co-expressed in mammalian HEK cells with a CFTR W1282X cDNA plasmid. The cellular preparations were analyzed by standard biochemical approaches via Western blot assessment of CFTR protein. […] Specifically, the “B” and “C” bands represent the full-length and fully mature, post-translationally proceeded CFTR protein at the cell surface, respectively. […] FIG. 9.
For expression in mammalian cells, the cDNA for the coding region and 200 base-pair of the 3′ untranslated region (UTR) of human CFTR was ligated into pcDNA3.1(+) (Promega, USA) using the KpnI and XbaI restriction enzymes. The G542tga and W1282tga mutations were introduced using QuickChange XL II (Stratagene, USA). For expression in Xenopus laevis oocytes, the cDNA for the coding region and 140 base-pair of the 5′ and 244 base-pair 3′ UTR of human CFTR was ligated into pGEM-HE (Promega, USA). Bothe the G542tga and W1282tga mutations were introduced using QuickChange XL II. The cDNA encoding the E. coli histidinol dehydrogenase was codon optimized for Mus musculus and synthesized (BioBasic Inc, Canada) with a c-terminal 8×His-Strep-tag (“8×His” disclosed as SEQ ID NO: 647) for protein purification from mammalian cells. The synthesized cDNA was ligated into pcDNA3.1(+) using EcoRI and XhoI restriction sites. […]

B1: Glychr19.trna2: top performing glycine ACE-tRNA UGA, SEQ ID NO: 53 (nucleic acid)
chain: GCGUUGGUGGUAUAGUGGUUAGCAUAGCUGCCUUCAAAGCAGUUGACCCGGGUUCGAUUCCCGGCCAACGCA
modifications: chemistry not given here
  rescue of CFTR protein, B and C bands: robust populations of ‘B’ and ‘C’ CFTR immunopositive
